Consider 4 substances from patent publication US20100022402A1, “Methods and Compositions for the In Vitro High-Throughput Detection of Protein/Protein Interactions” (priority 2004, published 2010).

Assay [1] has as its target DcDL1 lambda phage displaying gpD-c-myc fusion protein (bacteriophage lambda) (UniProt P03712). Kind of assay: bio-panning in 9E10-coated wells, reference DL1 phage.
Assay [2] has as its target Lambda phage displaying SS1 scFv (DcSS1DL1), gpD-scFv-c-myc fusion protein (bacteriophage lambda) (UniProt P03712). The assay can be described thus: phage ELISA on anti-c-myc-coated plates, reference DcDL1. For orientation: ELISA stands for enzyme-linked immunosorbent assay.
The target of assay [3] is DcDL1 lambda phage displaying gpD-c-myc fusion protein (bacteriophage lambda) (UniProt P03712). Kind of assay: bio-panning of DcDL1 SCO and DCO phage in 9E10-coated wells.
For assay [4], the target named is λD-Ubiquitin display phage (gpD fused to Ubiquitin) (bacteriophage lambda) (UniProt P03712). Kind of assay: apparent KD from titration of λD-Cue:λD-Ubiquitin co-infection by free protein.
For assay [5], the target named is λD-CUE display phage (gpD fused to the CUE domain of Vps9p) (bacteriophage lambda) (UniProt P03712). Described as above.
For assay [6] the target is unchanged. Kind of assay: competition: free protein titrates λD-CUE:λD-Ubiquitin co-infection (MOI 0.04), loss of double resistant multilysogens.
Assay [7] has as its target λD-Ubiquitin display phage (gpD fused to Ubiquitin) (bacteriophage lambda) (UniProt P03712). The assay can be described thus: cell-based or functional assay.

Sequence of free wild type CUE protein (wtCUE, 50 amino acids) (P54787 402-451 limits assumed): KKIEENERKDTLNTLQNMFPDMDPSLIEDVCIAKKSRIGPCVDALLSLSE

In assay [1], Anti-c-myc mAb, 9E10 (antibody) had a fold recovery over DL1 phage greater than 200 fold. In assay [2], the fold less binding than DcDL1 was 30 times less. In addition, the recovery of phages (percent of phages added) in assay [3] worked out at 2%.
Regarding “free wild type CUE protein (wtCUE, 50 amino acids) (from UniProt P54787 402-451)”, the Kd in assay [4] is 2 nM.
The IC50 is the concentration that gives 50% inhibition. Lower therefore signals higher potency. For “free wild type Ubiquitin protein (wtUbiquitin)”, the Kd in assay [5] came out at 20 nM. Moreover, the IC50 in assay [6] stood at 3 nM.
As for “λD-CUE display phage (gpD fused to the CUE domain of Vps9p) (from UniProt P03712 1-110; P54787 402-451)”, in assay [7], the Cml^r/Kan^r double resistant lysogens at an MOI of 0.008 (8×10^5 phages infecting 1×10^8 cells) came out at 150 lysogens, the MOI at which double resistant multilysogens begin to contribute to the stable lysogen population is 0.0001 MOI, the MOI at which formation of double resistant multilysogens begins amounted to 0.03 MOI and the maximum saturation point of double resistant multilysogens (% of the available cells) came to 25.
